# Results taken from patent publication CN108503708A.
# Changes are numbered by the printed parent chain. Where two headings read alike, the source gives them in different places.
# B1: H10C7+L26A6 (affinity-matured variant of hS2C3) (antibody, part only; not given: constant regions, V domains shown, part only)
# VH: QVQLVQSGAEVKKPGASVKVSCKASGYTFTDYYMHWVRQAPGQRLEWMGWIYPGSGNTRYSQKFKDRVTMTRDTSTSTVYMELSSLRSEDTAVYYCARREEDYFDYWGQGTLVTVSS
# B2: H11E5+L26A6 (affinity-matured variant of hS2C3) (antibody, part only; not given: constant regions, V domains shown, part only)
# VH: B1 VH with G54S, R59K, S61A
# Experiments:
# [1] = target: huCD47-D1-his (recombinant human CD47 extracellular region D1 with C-terminal His tag) (human (homo sapiens)) (UniProt Q08722); assay: SPR BIAcore, against hS2C3 as reference
# [2] = target: huCD47-D1-his (recombinant human CD47 extracellular region D1 with C-terminal His tag) (human (homo sapiens)) (UniProt Q08722); assay: SPR BIAcore, by the method of Example 3 (antibody captured, huCD47-D1-his analyte)
# [3] = target: hCD47 mutant E35A (human (homo sapiens)) (UniProt Q08722); assay: SPR BIAcore, against natural hCD47 as reference
# [4] = target: hCD47 mutant Q1A (human (homo sapiens)) (UniProt Q08722); assay: SPR BIAcore, against natural hCD47 as reference
# [5] = target: hCD47-mFc (human CD47 extracellular region D1 fused to mouse IgG2a Fc) (human (homo sapiens)); assay: competition ELISA by the method of Example 3 (hCD47-mFc coated, hCD172a-D1M1-His as competitor)
# [6] = target: hCD47-mFc (human CD47 extracellular region D1 fused to mouse IgG2a Fc) (human (homo sapiens)); assay: as above; remark: listed apart in the source
fold improvement of affinity over hS2C3 [1],Kd [2],koff [2],kon [2],fold increase of affinity against natural hCD47 [3],fold decrease of affinity against natural hCD47 [4],IC50 [5],IC50 [6],Binder
5 fold,2.32 nM,0.00193 s⁻¹,833000 M⁻¹ s⁻¹,4 fold,100 fold,< 5 nM,4.25 nM,B1
,1.83 nM,0.0017 s⁻¹,930000 M⁻¹ s⁻¹,,,< 5 nM,3.52 nM,B2
